Measurements published in US20070123452A1, “Method of selecting novel immunosuppressant” (Astellas Pharma Inc., priority 2002, published 2007).

Test system: IL-2 transcription (human IL-2 promoter)
Experiment: IL-2 reporter gene assay in Jurkat cells
Assay type: cell-based
Procedure: To 1 μg of the plasmid pGL3 IL2 Pro43, which has a human IL-2 promoter sequence (the −674 to +54 region in the vicinity of the transcription initiation site) upstream of the firefly luciferase gene, and 6 μg of pRL-TK (Promega), the plasmids for the expression of wild-type HDAC4 or each of HDAC4 dominant negative variants (H802K, H803L, H863L) prepared in Example 3 was mixed in various ratios (1, 3 and 10 μg), and 1×10^7 Jurkat cells (ATCC, TIB-152) were transformed by the electroporation method (BIO-RAD, Gene Pulser II, voltage 300 V, charge 975 μF, 400 μL).
After transformation, 2.5 mL of RPMI 1640 containing 10% FBS (MOREGATE) (10% FBS RPMI 1640) was added, and this mixture was dispensed to a 96-well white plate in a ratio of 50 μL/well. After cultivation under conditions of 37° C., 5% CO2 and saturated humidity for 10 hours, a liquid mixture of Phorbol 12-Myristate 13-Acetate (PMA, SIGMA), Ionomycin (SIGMA) and Anti-CD28 antibody (Pharmingen) in 10% FBS RPMI 1640 was added at 50 μL/well (the final concentrations were 50 ng/mL, 1 μg/mL and 75 ng/mL, respectively) to stimulate the Jurkat cells. After cultivation under conditions of 37° C., 5% CO2 and saturated humidity for 12 hours, luciferase activity in the cells was measured according to the manual of the Bright-Glo Luciferase Assay System (Promega) using a multi-label counter (1420 MULTILABEL COUNTER ARVO SX, WALLAC).
1×10^7 Jurkat cells (ATCC, TIB-152) were transformed with 10 μg of a plasmid for the expression of various HDACs or HDAC variants by the electroporation method (BIO-RAD, Gene Pulser II, voltage 300 V, charge 975 μF, 400 μL). […] After cultivation under conditions of 37° C., 5% CO2 and saturated humidity for 12 hours, luciferase activity in cells were measured according to the manual of the Bright-Glo Luciferase Assay System (Promega), and IL-2 transcriptional activity was measured using a multi-label counter (1420 MULTILABEL COUNTER ARVO SX, WALLAC).
A mixture of four kinds of HDAC4-targeted siRNA, i.e., siGENE HDAC4 SMARTpool (manufactured by Dharmacon Inc., marketed by B-Bridge international Inc., code number M-003497-00-05), or Non-specific Control Duplex IX (47% GC content) (manufactured by Dharmacon Inc., marketed by B-Bride international Inc., code number D-001206-09-20), and pGL3 IL2 Pro43 were transfected to Jurkat cells by the electroporation method using the same conditions as those mentioned above, and IL-2 transcriptional activity was measured. Likewise, siGENE HDAC4 SMARTpool or Non-specific Control Duplex IX, and pGL3-HSI-IE Pro were transfected to HEL cells, and GATA-1 transcriptional activity was measured. […]

B1: HDAC4 dominant negative variant (H863L): HDAC4 variant with H863L mutation, amino acid sequence SEQ ID NO:6, expressed from plasmid (protein, listed as Homo sapiens)
chain: MSSQSHPDGLSGRDQPVELLNPARVNHMPSTVDVATALPLQVAPSAVPMDLRLDHQFSLPVAEPALREQQLQQELLALKQKQQIQRQILIAEFQRQHEQLSRQHEAQLHEHIKQQQEMLAMKHQQELLEHQRKLERHRQEQELEKQHREQKLQQLKNKEKGKESAVASTEVKMKLQEFVLNKKKALAHRNLNHCISSDPRYWYGKTQHSSLDQSSPPQSGVSTSYNHPVLGMYDAKDDFPLRKTASEPNLKLRSRLKQKVAERRSSPLLRRKDGPVVTALKKRPLDVTDSACSSAPGSGPSSPNNSSGSVSAENGIAPAVPSIPAETSLAHRLVAREGSAAPLPLYTSPSLPNITLGLPATGPSAGTAGQQDTERLTLPALQQRLSLFPGTHLTPYLSTSPLERDGGAAHSPLLQHMVLLEQPPAQAPLVTGLGALPLHAQSLVGADRVSPSIHKLRQHRPLGRTQSAPLPQNAQALQHLVIQQQHQQFLEKHKQQFQQQQLQMNKIIPKPSEPARQPESHPEETEEELREHQALLDEPYLDRLPGQKEAHAQAGVQVKQEPIESDEEEAEPPREVEPGQRQPSEQELLFRQQALLLEQQRIHQLRNYQASMEAAGIPVSFGGHRPLSRAQSSPASATFPVSVQEPPTKPRFTTGLVYDTLMLKHQCTCGSSSSHPEHAGRIQSIWSRLQETGLRGKCECIRGRKATLEELQTVHSEAHTLLYGTNPLNRQKLDSKKLLGSLASVFVRLPCGGVGVDSDTIWNEVHSAGAARLAVGCVVELVFKVATGELKNGFAVVRPPGHHAEESTPMGFCYFNSVAVAAKLLQQRLSVSKILIVDWDVHHGNGTQQAFYSDPSVLYMSLLRYDDGNFFPGSGAPDEVGTGPGVGFNVNMAFTGGLDPPMGDAEYLAAFRTVVMPIASEFAPDVVLVSSGFDAVEGHPTPLGGYNLSARCFGYLTKQLMGLAGGRIVLALEGGHDLTAICDASEACVSALLGNELDPLPEKVLQQRPNANAVRSMEKVMEIHSKYWRCLQRTTSTAGRSLIEAQTCENEEAETVTAMASLSVGVKPAEKRPDEEPMEEEPPL
modifications: Dominant negative mutant (H863L) of human histone deacetylase-4 (HDAC4) gene
- IL-2 transcriptional activity (luciferase) (Jurkat cells stimulated with PMA, Ionomycin, Anti-CD28 antibody, expression plasmid 1, 3 and 10 μg): IL-2 transcription suppression depending on the expression level
- IL-2 transcriptional activity (luciferase) (Jurkat cells, 10 μg expression plasmid, compared with HDAC1 and HDAC3 variants): IL-2 transcription suppression was observed
